Paper PMC7875428

Experiments:
[1] = target: 6×His-tagged human DSG2 EC1-5 (amino acids A1-A553) from Expi293F GnTI- cells (human); test: BLI; biotinylated DSG2 variants loaded on streptavidin biosensors (immobilized at 1 μg/mL); FimH^LD or FimH^Q133K in solution, 10 μM to 156 nM, 15 min association, 20 min dissociation; 10 mM HEPES pH 7.4, 150 mM NaCl, 1 mM CaCl2, 3 mM EDTA, 0.005% P20, 1% BSA, 25°C; Octet-Red96; global 1:1 fit with drifting baseline; apparent constants
[2] = target: 6×His-tagged human DSG2 EC1-5 (amino acids A1-A553) from wild-type Expi293F cells (human); test: as above

lectin domain of FimH (FimH^LD, amino acids F1-G160) (from UniProt P08191 22-181) (domain or fragment)
Kd [1]: 0.484 µM
Kd [2]: 1.6 µM
